By stoichiometry N is commonly meant the number of molecules, sites or subunits per partner or assembly.

This assay deals with CAP256 gp140-FL-IP (soluble Env) (HIV-1 (CAP256 SU, subtype C)). The assay is described as follows: native gel or EMSA; NativePAGE Novex 3 to 12% bis-Tris gels, Coomassie stain or anti-gp120 blot, molecular weight against NativeMark standard; protein after GNL affinity and SEC (Superdex 200 HiLoad 16/600). (In EMSA bound probe runs differently from free probe, usually more slowly.)

The substance “CAP256 gp140-FL-IP (soluble Env) (domain or fragment)” showed a stoichiometry N of 3.

Source of the values: publication PMC6450106.
